Source: patent US20100191096A1, “PARAMAGNETIC BIOMOLECULE COMPLEXES AND USES THEREOF IN THE ASSESSMENT OF ORGAN FUNCTION” (priority 2007, published 2010)

Experiments:
renal cortex = test: T1 weighted MRI of rat kidneys after i.v. contrast agent (contrast enhancement in renal cortex); settings: 20 minutes after 30 seconds in vivo i.v. infusion of 800 μl Ringer solution containing ~1 mg complex
Protocol: The MRI hardware used to obtain the date in the figures described below is a Pharmascan 7T small animal MR scanner (from Bruker Biospin MRI GmbH, Ettlingen, Germany). The software is Paravision version 4 (from Bruker Biospin MR GmbH). Dynamic imaging was performed using a Flash sequence, with 2 mm slice thickness, 256×256 matrix, field of view (FOV) 6 cm, TR15.576 ms, TE3.7 ms, 250 evolution cycles, scan time 12 mins 27 sec. T1 weighted imaging was performed using a Flash T1 sequence, with 2 mm slice thickness, 256×256 matrix, FOV 6 cm, TR15.57 ms, TE3.7 ms, 10 averages, scan time 30 secs. T2 weighted imaging was performed using a Turbo RARE T2 sequence, with 2 mm slice thickness, 256×256 matrix, FOV 6 cm, TR4200 ms, TE36 ms, 3 averages, scan time 6 mins 47 secs.

[1] = tested on: kidney (glomeruli, proximal tubular cells); settings: cited from earlier work

Substance | contrast enhancement, T1 weighted MRI of coronal sections of rat kidneys (ex vivo) (renal cortex) | time at which breakdown products can be detected in plasma after i.v. injection ([1]; labelled aprotinin, i.v. injection) [min] | renal handling of native aprotinin (filtration, tubular uptake) ([1]; rat, in vivo)
Gd-DTPA-Lysozyme: Complex of chicken egg white lysozyme linked via DTPA chelator to Gadolinium, Example 2 standard protocol | selectively enhanced the contrast in the renal cortex |  | 
aprotinin |  | 20 | freely filtered in the glomeruli and quantitatively taken up into proximal tubular cells
